Assay results reported in the supplement of paper PMC11865577.

Experiments:
Test in all cases: pull-down binding Z-score (relative to library population); higher = stronger binding
Conditions in all cases: RNA library: Library-2
TO-N3 (biotin conjugate) = tested on: TO-N3 (biotin conjugate)
Outline: (§1)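 To score binding, a beads-only signal was subtracted, barcoded replicate probes were averaged with the highest and lowest dropped, and the value was converted to a Z-score using the library mean and standard deviation. The input was 1 μg of Cy5- or Cy3-end-labelled RNA library, heat-folded in phosphate/NaCl/KCl buffer and mixed for 60 min at 25 °C with streptavidin beads carrying 100 pmol of biotin-conjugated small molecule. Bound RNA was eluted in hot SDS and hybridised to a DNA barcode microarray at 55.5 °C for 20 h.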

[1] = tested on: TO-3-N3-2 (biotin conjugate)
Outline: as §1

[2] = tested on: TO-N3-2 (biotin conjugate)
Outline: as §1

[3] = tested on: TO-3-N3 (biotin conjugate)
Outline: as §1

Sequence | pull-down binding Z-score (TO-N3 (biotin conjugate)) | pull-down binding Z-score [1] | pull-down binding Z-score [2] | pull-down binding Z-score [3]
GUCAGUGAAACACAGGGAACAGAGAAACUGAC [IAV_invivo_PB2_1_Motif_24+IAV_invivo_PB2_1_Motif_24] | -0.399 | 0.282 | 0.355 | -0.496
GUCCUAAAGUGAAGUAUUUAUACUUUAUUAAAGGAU [SHAPE_invivo_SARS-CoV-2_Motif_244] | -1.19 | -0.605 | -1.51 | -0.854
GUCCUAUUACGGAU | -1.37 | -0.505 | -1.55 | -0.9
GUCGCUACAGGAUUGGCAACUAUAAAUUAAACACAGACCAUUCCAGUAGCAGUGAC [SHAPE_invitro_SARS-CoV-2_Motif_494] | 0.0101 | 0.215 | -0.283 | 0.00722
GUCGUUGACAGGACACGAGUAACUCGUCUAUCUUCUGCAGGCUGC [SARS-CoV-2-Conserved-Structured-34_Interval-80-197_Motif_3] | 0.831 | 0.148 | 2.14 | -0.455
GUCUAAUCUCAAACCUUUUGAGAGAGAU | -1.19 | -0.695 | -1.07 | -0.801
GUCUAGCUGUCCACGAGUGCUUUGUUAAGCGUGUUGACUGGAC | -0.138 | -0.348 | -0.24 | -0.128
GUCUCCUACUAAAUUAAAUGAUCUCUGCUUUACUAAUGUCUAUGCAGAUUCAUUUGUAAUUAGAGGUGAU | -0.922 | -0.285 | -0.628 | -0.707
GUCUCGCACCCGCGAGAU [IAV_invivo_PB2_1_Motif_2+IAV_invivo_PB2_1_Motif_2] | 0.279 | -0.362 | -0.742 | 0.583
GUCUCUAUAGAAAUAGAGAU | -0.156 | -0.397 | -1.36 | 0.213
GUCUCUGAAGAAGUAGUGGAAAAUCCUACCAUACAGAAAGAC | 0.289 | 0.0814 | 0.831 | -0.0809
GUCUGAUAAUGGACCCCAAAAUCAGCGAAAUGCACCCCGCAUUACGUUUGGUGGACCCUCAGAU | -0.521 | -0.237 | -0.0686 | -0.49
GUCUGGGAUCAACGAGUCAGCGGAC [IAV_invivo_PB1_2_Motif_28+IAV_invivo_PB1_2_Motif_28] | -0.256 | -0.51 | 0.401 | -0.28
GUCUGGUAGUCGGAC [IAV_invivo_NA_6_Motif_1+IAV_invivo_NA_6_Motif_1] | -0.173 | -0.235 | -0.21 | -0.00665
GUCUUACACCGUGCGGCACAGGCACUAGUACUGAUGUCGUAUACAGGGCUUUUGAC [DMSMaPseq_invitro_SARS-CoV-2_Motif_242] | 0.173 | 0.0142 | 0.217 | -0.0912
GUCUUUCCAGGGGC [IAV_invivo_NP_5_Motif_23+IAV_invivo_NP_5_Motif_23] | -0.393 | -0.414 | -0.0606 | -0.313
GUGAAACAUUUGUCAC [SHAPE_invivo_SARS-CoV-2_Motif_46] | 0.532 | 0.013 | -0.394 | 0.818
GUGAAGAAUCAU | 0.379 | -0.146 | -0.489 | 0.637
GUGAAUUCAACAU [DMSMaPseq_invitro_SARS-CoV-2_Motif_308] | -0.428 | -0.213 | -0.524 | -0.238
GUGAGAGAGAGCCGGAACCCAGGGAAUGCUGAGUUCGAAGAUCUCAC [IAV_invivo_NP_5_Motif_14+IAV_invivo_NP_5_Motif_14] | 0.687 | 0.125 | 1.5 | 0.351
GUGAUAGAGCCAUGCCUAACAUGCUUAGAAUUAUGGCCUCAC | 0.179 | 0.0068 | -0.0566 | 0.323
GUGAUGAACUGAAGAUUAAUGCGGCUUGUAGAAAGGUUCAACACAUGGUUGUUAAAGCUGCAUUAUUAGCAGACAAAUUCCCAGUUCUUCAC | 0.101 | 0.69 | 0.059 | -0.0396

Sequence | pull-down binding Z-score (TO-N3 (biotin conjugate)) | pull-down binding Z-score [1] | pull-down binding Z-score [2] | pull-down binding Z-score [3]
GUGCACUUGACCCUCUCUCAGAAACAAAGUGUAC [SHAPE_invivo_SARS-CoV-2_Motif_422] | 0.229 | -0.137 | -0.312 | 0.278
GUGCAGAAUGAAUUCUCGUAACUACAUAGCACAAGUAGAUGUAGUUAACUUUAAUCUCAC | -0.646 | -0.202 | -0.275 | -0.768
GUGCCACUCCAUGGCAC | 0.324 | -0.276 | -0.862 | 0.641
GUGCCAGCACAAAAUGCUAUAAGCAC [IAV_invivo_PB1_2_Motif_3+IAV_invivo_PB1_2_Motif_3] | -1.07 | -0.201 | -0.727 | -0.871
GUGCCAUCAAAUUGGAUGACAAAGAUCCAAAUUUCAAAGAUCAAGUCAUUUUGCUGAAUAAGCAUAUUGACGCAU | -0.411 | -0.165 | -0.159 | -0.675
GUGCCCAAAAUACGUCAGGAGUGC [IAV_invivo_HA_4_Motif_13+IAV_invivo_HA_4_Motif_13] | 0.0361 | 0.129 | 0.402 | -0.325
GUGCCUGGAAUAUUGGUGAACAGAAAUCAAUACUGAGUCCUCUUUAUGCAUUUGCAUCAGAGGCUGCUCGUGUUGUACGAUCAAUUUUCUCCCGCAC [SHAPE_invivo_SARS-CoV-2_Motif_37] | -0.115 | -0.0608 | 0.225 | -0.254
GUGCGGCACAGGCACUAGUACUGAUGUCGUAU [SHAPE_invitro_SARS-CoV-2_Motif_246] | 0.568 | 0.0228 | 0.326 | 0.297
GUGCGUAUAAAGAUUGUACAAAUGUUAAGUGACACACUUAAAAAUCUCUCUGACAGAGUCGUAUUUGUCUUAUGGGCAC [DMSMaPseq_invitro_SARS-CoV-2_Multi_54_ComplexLevel_1] | -0.833 | -0.29 | -0.644 | -1.04
GUGCUAAGCAC | -0.59 | -0.435 | -1.24 | -0.151
GUGCUAAUGACCCUGUGGGUUUUACAC [SHAPE_invivo_SARS-CoV-2_Motif_252] | 0.0247 | -0.275 | -0.465 | 0.178
GUGCUUGGGACAUUUGAUACCGCAC [IAV_invivo_PB2_1_Motif_30+IAV_invivo_PB2_1_Motif_30] | -0.171 | -0.147 | 0.571 | -0.258
GUGGAUGGUUAUGUUCAC | -0.236 | -0.266 | -0.628 | 0.0943
GUGGCACUGAGAAUUUGACUAAAGAAGGUGCCAC | 0.595 | 0.147 | 0.38 | 0.452
GUGGCCCUGAUGGCUAC | -0.412 | -0.622 | -0.0973 | -0.362
GUGGCUAAAUCUGAAUUUGACCGUGAUGCAGCCAU [DMSMaPseq_invitro_SARS-CoV-2_Motif_214] | -0.504 | -0.199 | -0.12 | -0.576
GUGGGGUAUUCAUCACCCGC [IAV_invivo_HA_4_Motif_9+IAV_invivo_HA_4_Motif_9] | 1.62 | 0.689 | 0.897 | 1.69
GUGGUAGUUAUACUAAUGACAAAGCUUGCCCAUUGAUUGCUGC [DMSMaPseq_invitro_SARS-CoV-2_Motif_161] | 0.498 | 0.207 | 0.208 | 0.409
GUGGUGAGACACUUGGUGUCCUUGUCCCUCAUGUGGGCGAAAUACCAGUGGCUUACCGC | 0.798 | -0.0757 | 0.812 | 0.769
GUGGUUAUACCUACUAAAAAGGCUGGUGGCACUACUGAAAUGCUAGCGAAAGCUUUGAGAAAAGUGCCAACAGACAAUUAUAUAACCAC | -0.353 | 0.156 | 0.179 | -0.608
GUGGUUGACCUACACAGGUGCCAU | -0.612 | -0.562 | 0.102 | -0.678
GUGUAAAAGUGCCUUUUACAU | -0.957 | -0.646 | -0.872 | -0.525

Sequence | pull-down binding Z-score (TO-N3 (biotin conjugate)) | pull-down binding Z-score [1] | pull-down binding Z-score [2] | pull-down binding Z-score [3]
GUGUACCUUCCUUACCCAGAUCCAUCAAGAAUCCUAGGGGCCGGCUGUUUUGUAGAUGAUAUCGUAAAAACAGAUGGUACAC [SHAPE_invivo_SARS-CoV-2_Multi_39_ComplexLevel_1] | 0.78 | -0.087 | 0.318 | 0.725
GUGUAUGCUGCUGACCCUGCUAUGCACGCUGCUUCUGGUAAUCUAUUACUAGAUAAACGCACUACGUGCUUUUCAGUAGCUGCAC | 0.772 | 0.434 | 0.698 | 0.39
GUGUUAUAACAC | -0.404 | -0.531 | -1.12 | -0.176
GUGUUUAUGAUUACUUAGUUUCUACACAGGAGUUUAGAUAUAUGAAUUCACAGGGACUACUCCCACCCAAGAAUAGCAUAGAUGC | -0.0167 | 0.472 | -0.079 | -0.215
GUUAAAAAUCUGAAUUCUUCUAGAGUUCCUGAUCUUCUGGUCUAAAC | -0.527 | 0.157 | 0.13 | -0.557
GUUAAAAUAUGAC [SHAPE_invivo_SARS-CoV-2_Motif_271] | -0.93 | -0.534 | -0.892 | -0.672
GUUAAAAUGUUUGAUGCUUACGUUAAUACGUUUUCAUCAACUUUUAAC | -1.54 | -0.247 | -1.35 | -1.02
GUUAACUGGUUAUAAGAAACCUGCUUCAAGAGAGCUUAAAGUUAC | -0.0514 | 0.092 | -0.112 | 0.0276
GUUAAUGCCUAUAUUAACCUUGACCAGGGCUUUAAC | -0.0902 | -0.198 | -0.216 | 0.238
GUUACGACUAUUGUAUACCUUACAAUAGUGUAAC | 0.531 | 0.229 | 0.142 | 0.593
GUUAGUACAACUACUAAC [SHAPE_invivo_SARS-CoV-2_Motif_138] | -1.06 | -0.398 | -0.963 | -0.759
GUUAUAAAUGGAGACAGGUGGUUUCUCAAUCGAUUUACCACAACUCUUAAUGAC | -0.772 | 0.00889 | -0.831 | -0.728
GUUAUGUUGAUACACCUAAU [DMSMaPseq_invitro_SARS-CoV-2_Motif_328] | -0.585 | -0.132 | -0.329 | -0.598
GUUCAGAGUUUAUUCUAGUGCGAAUAAUUGCACUUUUGAAUAUGUCUCUCAGC | -0.295 | 0.063 | -0.426 | -0.177
GUUCGGAUGCUCGAACUGCACCUCAUGGUCAUGUUAUGGUUGAGCUGGUAGCAGAACUCGAAGGCAUUCAGUAC [DMSMaPseq_invitro_SARS-CoV-2_Motif_11] | 0.002 | -0.307 | 1.96 | -0.665
GUUCGUGUUGUUUUAGAUUUCAUCUAAACGAAC | -1.12 | -0.562 | -0.397 | -0.845
GUUCUAAGUAUUGCUCCAAUAAUGUUCUCAAACAAAAUGGCGAGACUGGGAAAAGGGUAUAUGUUUGAGAGCAAGAGUAUGAAACUUAGAAC [IAV_invivo_PB1_2_Motif_18+IAV_invivo_PB1_2_Motif_18] | 1.12 | 0.578 | 1.25 | 0.629
GUUCUCAGUACAGAGAAAUCUCCCUUUUGACAGAACAACCAUUAUGGCAGCAUUCAAUGGGAAUACAGAGGGGAGAACAUCUGACAUGAGGAC [IAV_invivo_NP_5_Motif_22+IAV_invivo_NP_5_Motif_22] | 1.12 | -0.129 | 1.23 | 0.104
GUUCUCUAAACGAAC | -0.364 | -0.742 | -1.16 | -0.273
GUUCUCUAUGAGAAC | 0.0284 | -0.504 | -1.47 | 0.38
GUUCUUCUUCGUAAGAAC | -0.728 | -0.206 | -1.19 | -0.358
GUUCUUGAGUGUAAUGUGAAAACUACCGAAGUUGUAGGAGACAUUAUACUUAAACCAGC | 0.111 | 0.0674 | 0.162 | -0.133
